Experimental data taken from patent publication US20240026024A1 (SHANGHAI HUAOTA BIOPHARMACEUTICAL, published 2024).
Read-outs that look alike come from different tables or passages of the source.

Assays:
[1] = target: T1, human CD73 on the cell surface (human, UniProt P21589 27-549); assay: cell-based or functional assay
T1 sequence: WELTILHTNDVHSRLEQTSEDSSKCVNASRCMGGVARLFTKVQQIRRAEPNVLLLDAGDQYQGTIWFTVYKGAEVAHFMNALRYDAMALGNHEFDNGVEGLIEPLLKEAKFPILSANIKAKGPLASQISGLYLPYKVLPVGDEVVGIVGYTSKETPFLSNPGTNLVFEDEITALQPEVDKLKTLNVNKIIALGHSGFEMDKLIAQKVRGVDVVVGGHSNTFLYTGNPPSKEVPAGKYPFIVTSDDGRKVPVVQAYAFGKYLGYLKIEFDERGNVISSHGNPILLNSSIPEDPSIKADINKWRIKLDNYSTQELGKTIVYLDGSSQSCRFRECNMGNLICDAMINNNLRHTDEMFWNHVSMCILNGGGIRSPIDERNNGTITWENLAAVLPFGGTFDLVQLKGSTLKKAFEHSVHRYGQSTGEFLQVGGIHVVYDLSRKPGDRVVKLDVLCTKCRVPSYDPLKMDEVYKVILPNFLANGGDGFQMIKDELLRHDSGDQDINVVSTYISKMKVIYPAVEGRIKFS

[2] = target: T1, human CD73 on the cell surface; assay: cell-based or functional assay; remark: listed apart in the source
[3] = target: T1, human CD73 on the cell surface; assay: cell-based or functional assay; remark: listed apart in the source
[4] = target: T2, rat CD73 (Novoprotein, Cat No. CB16) (rat, UniProt P21588 29-551, limits assumed); assay: SPR (Biacore T200), antibody captured on protein A chip
T2 construct: Bought protein
T2 sequence (looked up): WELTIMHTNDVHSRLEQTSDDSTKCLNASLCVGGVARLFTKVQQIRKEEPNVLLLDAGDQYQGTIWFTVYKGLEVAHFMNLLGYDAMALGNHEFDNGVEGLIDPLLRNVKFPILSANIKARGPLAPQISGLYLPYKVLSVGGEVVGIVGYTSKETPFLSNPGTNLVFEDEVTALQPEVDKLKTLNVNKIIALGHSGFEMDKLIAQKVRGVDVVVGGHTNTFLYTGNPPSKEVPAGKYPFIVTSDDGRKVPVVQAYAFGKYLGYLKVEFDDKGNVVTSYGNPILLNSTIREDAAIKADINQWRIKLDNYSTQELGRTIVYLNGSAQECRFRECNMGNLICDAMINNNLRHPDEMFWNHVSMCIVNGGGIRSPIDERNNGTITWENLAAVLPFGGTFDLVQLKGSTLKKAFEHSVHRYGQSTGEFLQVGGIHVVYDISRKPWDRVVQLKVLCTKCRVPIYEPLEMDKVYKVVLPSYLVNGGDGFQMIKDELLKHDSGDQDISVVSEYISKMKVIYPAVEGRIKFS
Protocol: (§1) The temperatures of the sample chamber and flow path were set at 25° C. The protein A chips separately captured the antigen-binding proteins as ligands, which were immobilized at about 100 RU. […] Ten mM Glycine, pH 1.5, was regenerated for 60 s at a flow rate of 50 L/min for multiple cycle kinetic detection. The binding rate constant (ka), dissociation rate constant (kd) and dissociation equilibrium rate constant (KD) were fitted using the Fit local mode of a 1:1 binding model.

[5] = target: T1, human CD73 on the cell surface; assay: flow cytometry on CHOK1-huCD73-3F4 cells, PE anti-human Fc
Protocol: All the antigen-binding proteins were diluted to 30 μg/ml with PBS solution containing 1% BSA (1% BSA/PBS), diluted at 3-fold into 11 gradients and then added to a 96-well U-shaped plate at 20 μL/well, and negative control (1% BSA/PBS was added only) was set up simultaneously. The suspension of human CD73-expressing cells (CHOK1-huCD73-3F4, Huabo Biopharm) in the logarithmic growth phase were collected and centrifuged at 1000 rpm for 5 min, and the culture medium was discarded; then the cells were resuspended with 1% BSA/PBS to a viable cell density of 1×10⁶/mL, and then added into the 96-well U-shaped plate already added with anti-CD73 antigen-binding protein at 20 μL (2×10⁴ cells)/well for reaction at room temperature for 30 min. […] After the reaction, the cells in the 96-well U-shaped plate were resuspended with 1% BSA/PBS and centrifuged at 300 g for 3 min and the supernatant was discarded; after washing in this manner 3 times, and the cells were finally resuspended with 1% BSA/PBS at 100 μL/well, and the fluorescence intensity of the PE channel was measured with a flow cytometer (BD, #Canto II).

[6] = target: T3, human CD73 protein (ACRO Biosystems, Cat No. CD3-H52H7) (human, UniProt P21589 27-547); assay: SPR (Biacore T200), antibody captured on protein A chip, CD73 as analyte, 1:1 model
T3 construct: Bought protein; also called recombinant CD73 protein; recombinant CD73
T3 sequence: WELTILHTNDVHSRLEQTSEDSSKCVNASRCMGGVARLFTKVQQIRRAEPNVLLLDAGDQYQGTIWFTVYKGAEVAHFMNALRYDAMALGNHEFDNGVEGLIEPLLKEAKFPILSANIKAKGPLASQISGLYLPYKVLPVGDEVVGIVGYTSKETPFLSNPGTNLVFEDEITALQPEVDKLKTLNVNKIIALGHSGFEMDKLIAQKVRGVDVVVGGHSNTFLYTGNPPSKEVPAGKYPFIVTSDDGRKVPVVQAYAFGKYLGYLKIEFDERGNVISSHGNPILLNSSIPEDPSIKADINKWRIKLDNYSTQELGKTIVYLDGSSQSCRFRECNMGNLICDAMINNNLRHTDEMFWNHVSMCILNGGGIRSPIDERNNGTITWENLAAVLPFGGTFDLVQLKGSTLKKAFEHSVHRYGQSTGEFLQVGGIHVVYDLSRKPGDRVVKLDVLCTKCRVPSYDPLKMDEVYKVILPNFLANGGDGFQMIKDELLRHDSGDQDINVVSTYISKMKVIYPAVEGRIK
Protocol: as §1, with “μL/min” for “L/min”

Binder	EC50(µg/mL), inhibition of enzyme activity of CD73 on CHOK1-huCD73-3F4 cells [1] [µg/mL]	EC50(µg/mL), inhibition of enzyme activity of CD73 on CHOK1-huCD73-3F4 cells [2] [µg/mL]	Endocytosis efficiency (%) [3] [%]	binding result [4]	EC50 [5] [µg/mL]	Kd [6] [nM]	koff [6] [s⁻¹]	kon [6] [M⁻¹ s⁻¹]
900581 (antibody, human IgG1, V domains shown) VH: EVQLVESGGGLVKPGGSLKLSCAASGFTFSKYAMSWVRQSPEKRLEWVAEISSGGGYINYPDTVTGRFTISRDNAKNTLYLEMSSLRSGDTAMYYCARAIYYYGSSYNYYAMDYWGQGTSVTVSS VL: DIVMTQSHKFMSTSVGDRVSITCKASQDVGTAEAWYQQKPGQSPKLLIYWASTRHTGVPDRFTGSGSGTDFTLTIGNVQSEDLADYFCQQYSSYPLTFGGGTKLEIK	0.944	1.85	78.8	no binding (tested: up to 50 nM analyte)	0.426	1.65	0.000439	267000
900695 (antibody, V domains shown, Constant regions are not restated) VH: QVQLVESGGGLVKPGGSLRLSCAASGFTFSKYAMSWVRQAPGKGLEWVAEISSGGGYINYADSVTGRFTISRDNAKNSLYLQMNSLRAEDTAVYYCARAIYYYGSSYNYYAMDYWGQGTTVTVSS VL: DIQMTQSPSSLSASVGDRVTITCRASQDVGTAEAWYQQKPGKAPKLLIYWASTRHTGVPSRFSGSGSGTDFTLTISSLQPEDFATYYCQQYSSYPLTFGQGTKLEIK	–	–	–	no binding (tested: up to 50 nM analyte)	–	2.04	6.03e-05	29500
900696 (antibody, V domains shown, Constant regions are not restated) VH: QVQLVESGGGLVKPGGSLRLSCAASGFTFSKYAMSWIRQAPGKGLEWVAEISSGGGYINYADSVKGRFTISRDNAKNSLYLQMNSLRAEDTAVYYCARAIYYYGSSYNYYAMDYWGQGTTVTVSS VL: DIQMTQSPSSLSASVGDRVTITCRASQDVGTAEAWYQQKPGKAPKLLIYWASTLQSGVPSRFSGSGSGTDFTLTISSLQPEDFATYYCQQYSSYPLTFGQGTKLEIK	–	–	–	no binding (tested: up to 50 nM analyte)	–	4.23	0.000928	219000
900697 (antibody, V domains shown, Constant regions are not restated) VH: QVQLVESGGGLVKPGGSLRLSCAASGFTFSKYAMSWVRQAPGKGLEWVAEISSGGGYINYADSVTGRFTISRDNAKNSLYLQMNSLRAEDTAVYYCARAIYYYGSSYNYYAMDYWGQGTTVTVSS VL: DIQMTQSPSSLSASVGDRVTITCRASQDVGTAEAWYQQKPGKAPKLLIYWASTLQSGVPSRFSGSGSGTDFTLTISSLQPEDFATYYCQQYSSYPLTFGQGTKLEIK	–	1.97	98.2	no binding (tested: up to 50 nM analyte)	–	1.29	0.000492	380000
900698 (antibody, V domains shown, Constant regions are not restated) VH: QVQLVESGGGLVKPGGSLRLSCAASGFTFSKYAMSWIRQAPGKGLEWVAEISSGGGYINYADSVKGRFTISRDNAKNSLYLQMNSLRAEDTAVYYCARAIYYYGSSYNYYAMDYWGQGTTVTVSS VL: DIQMTQSPSSLSASVGDRVTITCRASQDVGTAEAWYQQKPGKAPKLLIYWASTRHTGVPSRFSGSGSGTDFTLTISSLQPEDFATYYCQQYSSYPLTFGQGTKLEIK	–	1.43	96.3	no binding (tested: up to 50 nM analyte)	–	3.12	0.00106	339000
